Patent US20220056094A1 (JIANGSU HENGRUI MEDICINE, published 2022)
Like-named read-outs stand apart in the source and are kept apart here.

T1: high-affinity receptor IL-2Rα/β/γ on CTLL2 cells (mouse-derived cell line) (mouse, UniProt P01590 22-268; P16297 27-539; P34902 23-369)
T1 sequence (looked up) 1: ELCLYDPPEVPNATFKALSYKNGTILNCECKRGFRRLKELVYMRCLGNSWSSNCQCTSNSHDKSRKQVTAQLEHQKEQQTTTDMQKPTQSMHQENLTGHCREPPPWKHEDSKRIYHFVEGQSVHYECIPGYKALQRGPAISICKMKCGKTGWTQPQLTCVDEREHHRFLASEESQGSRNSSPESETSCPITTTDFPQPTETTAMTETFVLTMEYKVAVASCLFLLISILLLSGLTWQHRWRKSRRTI
T1 sequence (looked up) 2: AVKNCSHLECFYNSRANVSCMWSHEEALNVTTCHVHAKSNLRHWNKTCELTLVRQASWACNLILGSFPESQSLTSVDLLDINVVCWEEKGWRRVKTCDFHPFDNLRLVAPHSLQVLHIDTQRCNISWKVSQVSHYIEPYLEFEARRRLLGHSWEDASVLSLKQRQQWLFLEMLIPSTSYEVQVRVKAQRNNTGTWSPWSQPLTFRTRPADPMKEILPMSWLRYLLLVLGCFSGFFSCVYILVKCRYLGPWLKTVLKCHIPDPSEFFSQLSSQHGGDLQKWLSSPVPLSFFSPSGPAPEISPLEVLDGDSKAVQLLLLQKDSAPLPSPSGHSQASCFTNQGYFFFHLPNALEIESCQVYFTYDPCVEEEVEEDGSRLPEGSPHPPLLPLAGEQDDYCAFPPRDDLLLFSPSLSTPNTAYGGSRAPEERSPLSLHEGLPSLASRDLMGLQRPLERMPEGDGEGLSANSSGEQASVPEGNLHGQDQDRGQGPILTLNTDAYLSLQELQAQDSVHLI
T1 sequence (looked up) 3: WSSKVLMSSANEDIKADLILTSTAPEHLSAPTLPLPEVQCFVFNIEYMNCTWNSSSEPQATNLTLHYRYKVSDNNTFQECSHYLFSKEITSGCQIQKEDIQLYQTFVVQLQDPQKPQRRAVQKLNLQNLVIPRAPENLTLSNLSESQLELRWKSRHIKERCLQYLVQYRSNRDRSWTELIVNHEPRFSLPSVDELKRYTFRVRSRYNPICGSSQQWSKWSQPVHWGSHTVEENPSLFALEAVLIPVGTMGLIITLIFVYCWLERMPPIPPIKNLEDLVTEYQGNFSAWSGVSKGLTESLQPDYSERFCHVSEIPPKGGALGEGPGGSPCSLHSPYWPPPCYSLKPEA

T2: his-tagged human IL-2Rα recombinant protein (SinoBiological, Cat #10165-H08H) (human, UniProt P01589 22-213)
T2 construct: Bought protein; also called IL-2Rα (His Tag)
T2 sequence: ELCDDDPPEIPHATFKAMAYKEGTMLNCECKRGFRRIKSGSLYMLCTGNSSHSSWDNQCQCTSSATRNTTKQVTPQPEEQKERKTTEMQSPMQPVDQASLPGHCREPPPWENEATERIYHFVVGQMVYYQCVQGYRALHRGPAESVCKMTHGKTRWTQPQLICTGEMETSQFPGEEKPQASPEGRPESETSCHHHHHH

T3: medium-affinity receptor IL-2Rβ/γ on human cells (Mo7e cell line; human CD8+T and NK cells) (human, UniProt P14784 27-551; P31785 23-369)
T3 sequence (looked up) 1: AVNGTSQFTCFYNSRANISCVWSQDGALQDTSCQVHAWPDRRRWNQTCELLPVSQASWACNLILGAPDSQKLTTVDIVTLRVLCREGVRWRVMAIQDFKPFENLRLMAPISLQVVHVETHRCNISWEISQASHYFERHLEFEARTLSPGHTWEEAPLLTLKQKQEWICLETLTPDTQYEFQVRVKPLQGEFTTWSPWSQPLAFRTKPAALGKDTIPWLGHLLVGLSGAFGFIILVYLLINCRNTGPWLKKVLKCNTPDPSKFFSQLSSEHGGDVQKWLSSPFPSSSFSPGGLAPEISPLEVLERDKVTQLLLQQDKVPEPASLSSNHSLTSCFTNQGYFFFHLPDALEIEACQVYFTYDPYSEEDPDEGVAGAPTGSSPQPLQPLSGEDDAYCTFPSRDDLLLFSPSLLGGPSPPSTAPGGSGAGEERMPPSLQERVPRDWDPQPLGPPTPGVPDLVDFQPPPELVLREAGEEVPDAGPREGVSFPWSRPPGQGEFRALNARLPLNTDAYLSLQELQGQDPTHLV
T3 sequence (looked up) 2: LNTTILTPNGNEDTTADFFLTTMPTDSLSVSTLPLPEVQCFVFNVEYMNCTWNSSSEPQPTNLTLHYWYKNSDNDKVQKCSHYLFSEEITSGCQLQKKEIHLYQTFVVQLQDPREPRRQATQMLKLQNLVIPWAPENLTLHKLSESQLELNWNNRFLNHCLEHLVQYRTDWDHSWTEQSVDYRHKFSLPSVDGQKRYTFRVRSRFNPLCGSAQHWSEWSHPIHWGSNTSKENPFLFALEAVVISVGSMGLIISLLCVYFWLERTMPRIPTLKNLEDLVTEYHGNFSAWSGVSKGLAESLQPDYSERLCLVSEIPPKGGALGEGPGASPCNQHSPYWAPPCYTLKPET

T4: IL-2 receptor IL-2Rα/β/γ on human peripheral blood Treg cells (human, UniProt P01589 22-272; P14784 27-551; P31785 23-369)
T4 sequence (looked up) 1: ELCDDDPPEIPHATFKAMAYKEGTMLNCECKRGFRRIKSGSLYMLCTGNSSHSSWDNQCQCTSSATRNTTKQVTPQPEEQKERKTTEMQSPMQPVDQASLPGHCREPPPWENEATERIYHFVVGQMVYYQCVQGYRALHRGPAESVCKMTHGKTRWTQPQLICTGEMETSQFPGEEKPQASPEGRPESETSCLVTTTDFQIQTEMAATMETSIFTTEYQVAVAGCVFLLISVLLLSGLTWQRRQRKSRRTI
T4 sequence (looked up) 2: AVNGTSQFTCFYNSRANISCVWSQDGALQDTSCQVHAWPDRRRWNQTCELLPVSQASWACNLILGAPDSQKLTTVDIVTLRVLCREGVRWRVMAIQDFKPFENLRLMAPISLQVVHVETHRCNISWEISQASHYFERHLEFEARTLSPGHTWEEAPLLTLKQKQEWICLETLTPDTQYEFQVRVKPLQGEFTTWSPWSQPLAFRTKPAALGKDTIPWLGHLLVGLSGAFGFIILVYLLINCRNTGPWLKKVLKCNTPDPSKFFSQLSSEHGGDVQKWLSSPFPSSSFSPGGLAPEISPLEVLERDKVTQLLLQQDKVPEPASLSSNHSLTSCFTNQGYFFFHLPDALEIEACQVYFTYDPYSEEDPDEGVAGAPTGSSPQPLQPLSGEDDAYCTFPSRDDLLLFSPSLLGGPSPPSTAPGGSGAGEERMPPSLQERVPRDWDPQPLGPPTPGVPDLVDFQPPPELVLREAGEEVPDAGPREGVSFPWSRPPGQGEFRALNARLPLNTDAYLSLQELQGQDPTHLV
T4 sequence (looked up) 3: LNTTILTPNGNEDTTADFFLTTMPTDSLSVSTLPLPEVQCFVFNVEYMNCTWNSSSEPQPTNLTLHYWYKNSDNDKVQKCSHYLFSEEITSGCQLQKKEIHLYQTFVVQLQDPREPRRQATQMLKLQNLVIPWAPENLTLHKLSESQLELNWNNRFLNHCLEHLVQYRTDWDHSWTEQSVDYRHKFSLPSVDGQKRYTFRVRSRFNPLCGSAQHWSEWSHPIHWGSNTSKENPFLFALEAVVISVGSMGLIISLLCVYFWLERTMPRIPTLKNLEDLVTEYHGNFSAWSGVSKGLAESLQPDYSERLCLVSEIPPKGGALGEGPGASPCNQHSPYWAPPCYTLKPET


Tests used:
[1] = biological target: T1, high-affinity receptor IL-2Rα/β/γ on …; assay: cell-based or functional assay
[2] = biological target: T2, his-tagged human IL-2Rα recombinant …; assay: ELISA, his-tagged IL-2Rα coated, HRP anti-IL-2 polyclonal detection
Description: 96-well microtiter plate was coated with 2 μg/mL his-tagged IL-2Rα recombinant protein (SinoBiological, Cat #10165-H08H), and incubated overnight at 4° C. The plate was washed with washing solution for three times, 250 μl per well. For each time of washing, the plate was shaken for 10 seconds to ensure sufficient washing. 200 μl/well blocking solution was added and incubated at room temperature for 2 hours. The plate was washed with washing solution for three times, 250 μl per well. For each time of washing, the plate was shaken for 10 seconds to ensure sufficient washing. […] The plate was incubated for 1 hour at room temperature. The plate was washed with washing solution for three times, 250 μl per well. […] The plate was incubated for 1 hour at room temperature. The plate was washed with washing solution for three times, 250 μl per well. 100 μl TMB was added to each well, and the reaction was performed for 15 minutes in the dark. 50 μl of 0.16 M sulfuric acid was added to each well.

[3] = biological target: T5, IL-2Rβ/γ-Fc heterodimer (IL-2Rβ-Fc-hole with IL-2Rγ-Fc-knob); assay: SPR (Biacore), IL-2Rβ/γ-Fc captured on Protein A chip, 1:1 model
T5 construct: Co-expressed in HEK293 cells and purified with Protein A and Superdex 200
Description: (§1) The Protein A sensor chip (GE, Cat #29127556) of the Biacore instrument (Biacore T200, GE) was used to capture IL-2Rβ/γ-Fc, wherein IL-2Rβ/γ-Fc was diluted with 1×HBS-EP to 1 μg/mL, and flowed at a flow rate of 10 μL/min for 30 seconds. […] The Biacore instrument (Biacore X100, GE) was used to detect the reaction in real time, to obtain association and dissociation curves. After each cycle of dissociation was completed, the chip was washed and regenerated with 10 mM Gly-HCl pH 1.5.
Target sequence in this assay (chain, as listed by the source limits assumed, chain 1 of 2): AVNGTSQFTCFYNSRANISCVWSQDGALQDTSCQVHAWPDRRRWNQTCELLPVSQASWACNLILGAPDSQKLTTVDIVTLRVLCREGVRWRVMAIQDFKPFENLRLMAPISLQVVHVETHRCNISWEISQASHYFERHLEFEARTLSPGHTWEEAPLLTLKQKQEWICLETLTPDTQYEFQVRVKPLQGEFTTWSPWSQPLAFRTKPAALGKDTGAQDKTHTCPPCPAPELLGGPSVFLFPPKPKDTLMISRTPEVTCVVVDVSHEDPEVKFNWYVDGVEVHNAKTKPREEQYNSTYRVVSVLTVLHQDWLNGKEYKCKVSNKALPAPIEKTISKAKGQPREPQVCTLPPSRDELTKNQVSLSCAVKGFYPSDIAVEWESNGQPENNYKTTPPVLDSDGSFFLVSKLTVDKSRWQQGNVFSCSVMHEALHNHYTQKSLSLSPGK
Target sequence in this assay (chain, as listed by the source limits assumed, chain 2 of 2): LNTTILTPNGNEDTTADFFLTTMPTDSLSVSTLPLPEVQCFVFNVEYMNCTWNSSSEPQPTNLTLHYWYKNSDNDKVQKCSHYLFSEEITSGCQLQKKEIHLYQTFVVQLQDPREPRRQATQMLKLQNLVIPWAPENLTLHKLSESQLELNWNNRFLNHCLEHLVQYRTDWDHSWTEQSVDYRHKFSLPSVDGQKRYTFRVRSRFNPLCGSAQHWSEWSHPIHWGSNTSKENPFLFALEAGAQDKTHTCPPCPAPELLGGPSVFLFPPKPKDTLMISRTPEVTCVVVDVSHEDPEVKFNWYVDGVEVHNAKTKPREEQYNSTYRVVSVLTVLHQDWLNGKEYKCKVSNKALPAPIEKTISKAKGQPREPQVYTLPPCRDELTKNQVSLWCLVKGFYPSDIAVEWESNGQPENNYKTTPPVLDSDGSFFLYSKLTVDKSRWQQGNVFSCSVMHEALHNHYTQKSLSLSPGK

[4] = biological target: T5, IL-2Rβ/γ-Fc heterodimer (IL-2Rβ-Fc-hole …); assay: SPR (Biacore), IL-2Rβ/γ-Fc captured on Protein A chip
Description: as §1

[5] = biological target: T1, high-affinity receptor IL-2Rα/β/γ on …; assay: cell-based or functional assay; remark: listed apart in the source
[6] = biological target: T3, medium-affinity receptor IL-2Rβ/γ on …; assay: cell-based or functional assay
[7] = biological target: T2, his-tagged human IL-2Rα recombinant …; assay: BLI (Octet RED96e), His-tagged IL-2Rα on HIS1K sensor
Description: The HIS1K biosensor (Fortebio, 18-5120) was immersed into 200 μL buffer (PBS, pH 7.4, 0.02% tween-20, 0.1% BSA) for 10 minutes, for wetting treatment. Then, human IL-2Rα with His tag (SinoBiological, Cat #10165-H08H) was dissolved in PBS pH 7.4, 0.02% tween-20 and 0.1% BSA, and the sensor was placed in 200 μL of such solution. The sensor was placed in 200 μL buffer (PBS pH 7.4, 0.02% tween-20, 0.1% BSA) to wash off the excess IL-2Rα.

[8] = biological target: T3, medium-affinity receptor IL-2Rβ/γ on …; assay: cell-based or functional assay; remark: listed apart in the source
[9] = biological target: T4, IL-2 receptor IL-2Rα/β/γ on human …; assay: cell-based or functional assay
[10] = biological target: T3, medium-affinity receptor IL-2Rβ/γ on …; assay: cell-based or functional assay; remark: listed apart in the source

| Binder | relative biological activity (CTLL2 cell proliferation) [1] [%] | EC50 [2] [nM] | Kd [3] [nM] | koff [3] [s⁻¹] | kon [3] [M⁻¹ s⁻¹] | Kd [4] [nM] | koff [4] [s⁻¹] | kon [4] [M⁻¹ s⁻¹] | EC50 (CTLL2 cell proliferation) [5] [nM] | relative biological activity (CTLL2 cell proliferation) [5] [%] | EC50 (Mo7e cell proliferation) [6] [nM] | relative biological activity (Mo7e cell proliferation) [6] [%] | binding result [7] | EC50 (STAT5 phosphorylation in human NK cells) [8] [nM] | relative activity (STAT5 phosphorylation in human NK cells) [8] [%] | EC50 (STAT5 phosphorylation in human Treg cells) [9] [nM] | relative biological activity (STAT5 phosphorylation in human Treg cells) [9] [%] | EC50 (STAT5 phosphorylation in human CD8+T cells) [10] [nM] | relative activity (STAT5 phosphorylation in human CD8+T cells) [10] [%] |
| --- | --- | --- | --- | --- | --- | --- | --- | --- | --- | --- | --- | --- | --- | --- | --- | --- | --- | --- | --- |
| IL-2-04 (L70C/P82C) (ligand, The entry already carries the mutations and C125A and begins with M. Made in E. coli) MAPTSSSTKKTQLQLEHLLLDLQMILNGINNYKNPKLTRMLTFKFYMPKKATELKHLQCLEEELKPLEEVCNLAQSKNFHLRCRDLISNINVIVLELKGSETTFMCEYADETATIVEFLNRWITFAQSIISTLT | 176 | 0.87 | 0.302 | 0.00015 | 498000 | – | – | – | – | – | – | – | – | – | – | – | – | – | – |
| IL-2-05 (G27C/F78C) (ligand, The entry already carries the mutations and C125A and begins with M. Made in E. coli) MAPTSSSTKKTQLQLEHLLLDLQMILNCINNYKNPKLTRMLTFKFYMPKKATELKHLQCLEEELKPLEEVLNLAQSKNCHLRPRDLISNINVIVLELKGSETTFMCEYADETATIVEFLNRWITFAQSIISTLT | 229 | 0.6 | 0.288 | 9.68e-05 | 336000 | – | – | – | – | – | – | – | – | – | – | – | – | – | – |
| PEGylated IL-2-22 (ligand, mono-PEGylated with 20 kDa mPEG-butyraldehyde (sodium cyanoborohydride); site not stated, also called PEG-IL-2-22) MAPTSSSTKKTQLQLEHLLLDLQMILQGISNYKNPKLTRMLTAKFYMPKKATELKHLQCLEEELKPLEEVLQGAQSKNFHLRPRDLISNINVIVLELKGSETTFMCEYADETATIVEFLNRWITFAQSIISTLT | – | – | – | – | – | 3.54 | 0.000549 | 155000 | 39.2 | 0.1 | 34.8 | 7 | no binding (tested: 133.3 nM) | – | – | – | – | – | – |
| PEGylated IL-2-23 (ligand, mono-PEGylated with 20 kDa mPEG-butyraldehyde (sodium cyanoborohydride); site not stated, also called PEG-IL-2-23) MAPTSSSTKKTCLQLEHLLLDLQMILNGIQSMHIDATLYMPKKATELKHLQCLEEELKPLEEVLNLAQSKNFHLRPRDLISNINVIVLELKGSETTFMCEYADETATIVEFLNRWITFAQSIISTCT | – | – | – | – | – | 1.86 | 0.000649 | 350000 | – | – | 23.4 | 10 | no binding (tested: 133.3 nM) | 2.88 | 17 | 4.24 | 0.01 | 14.4 | 16 |
